Assay results as given in article PMC6292511.

Tests used:
DMA-1::RFP (C. elegans) = experiment: single molecule pull-down
[1] = target: DMA-1::GFPnovo2 (C. elegans); experiment: FRET or BRET

Substance | percent of DMA-1::RFP speckles co-localized with HPO-30::GFP (DMA-1::RFP (C. elegans)) [%] | fraction of DMA-1::GFPnovo2 bound to HPO-30::mCherry [1] [%]
HPO-30::GFP (natural protein) | 56.1 | 
HPO-30::mCherry (natural protein) |  | 30
